These are literature values, as cited in publication PMC10584158.

The data set concerns the target IL-6 (Homo sapiens) (UniProt P05231).

Sequence of IL-6 (Homo sapiens) (P05231 30-212): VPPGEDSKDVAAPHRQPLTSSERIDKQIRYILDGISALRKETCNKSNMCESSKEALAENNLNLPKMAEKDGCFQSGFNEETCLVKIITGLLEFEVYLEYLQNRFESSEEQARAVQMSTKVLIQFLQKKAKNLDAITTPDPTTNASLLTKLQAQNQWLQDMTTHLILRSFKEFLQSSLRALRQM

For Clazakizumab, the Kd – broadly, a measure of binding affinity in units of concentration – is 4 pM.
